Measurements taken from patent publication US7981997B2, “Growth factor which acts through ErbB-4 RTK” (Yeda Research And Development Co., priority 2000, dated 2011).

How the values were obtained:
[1] = biological target: T1, ErbB-4 co-expressed with ErbB-1 (Homo sapiens, UniProt Q15303); test: Covalent crosslinking to CHO cells co-transfected with ErbB-4 and ErbB-1; format: binding
T1 construct: expressed in transfected cells; host or cells: CHO (Chinese Hamster Ovary) cells, transient co-transfection
Method: (§1) CHO cells were transfected with vectors directing expression of the indicated ErbB proteins or their combinations. Two days later cell monolayers were incubated with either ^125I-NRG-1β or ^125I-NRG-4 (EGF-like domains, each at 100 ng/ml). Following 2 hours at 4° C., the covalent crosslinking reagent bis(sulfosuccinimdyl)-suberate (BS^3) was added (1 mM final concentration) and cell extracts prepared after an additional 45 minutes of incubation. The indicated ErbB proteins were then immunoprecipitated with mouse monoclonal antibodies, and the complexes resolved by gel electrophoresis and autoradiography. Arrows mark the locations of monomeric (M) and dimeric (D) receptor complexes.
(§2) Growth factors were labeled with Iodogen (Pierce) as described (Karunagaran et al., 1995). Chemical crosslinking to Chinese Hamster Ovary (CHO) cells engineered to express different ErbB combinations have been performed essentially as described (Tzahar et al., 1996). Briefly, radiolabeled ligands (at 100 ng/ml) were incubated for 2 hours with cell monolayers at 4 C. […] Non-specific binding was determined in the presence of a 100-fold molar excess of the unlabeled ligani. Cells were then washed, lysed in a solution containing 0.1 M NaOH and 0.1% SDS, and radioactivity determined by use of a gamma counter. […]

[2] = biological target: T2, ErbB-4 co-expressed with ErbB-2 (Homo sapiens, UniProt Q15303); test: Covalent crosslinking to CHO cells co-transfected with ErbB-4 and ErbB-2; format: binding; conditions: precipitation with anti-ErbB-2 antibodies
T2 construct: expressed in transfected cells; host or cells: CHO (Chinese Hamster Ovary) cells, transient co-transfection
Method: as §1, §2

[3] = system: D24 cells (32D co-expressing ErbB-4 and ErbB-2); test: Long-term cell survival assay in the absence of IL-3 (MTT); format: cell-based; conditions: ligand 100 ng/ml, MTT daily
Method: (§3) FIG. 3b show survival effect of NRG-4 on ErbB-expressing derivatives of 32D cells. The indicated derivatives of 32D cells were incubated for various time intervals in the absence of IL-3. […] For control, cells were incubated with medium conditioned by IL-3-producing cells (open triangles), or with no factor (open circles). The extent of cell proliferation was determined daily by using the calorimetric MTT assay. The data presented are the mean±S.D. of 4 determinations. Note that co-expression of ErbB-1 and ErbB-2 (D12 cells) enabled cell survival in the absence of IL-3. The experiment was repeated twice with similar results.
(§4) The establishment of a series of interleukin 3 (IL-3)-dependent 32D myeloid cells expressing all combinations of ErbB proteins has been described (Alimandi et al., 1997; Pinkas-Kramarski et al., 1996; Shelly et al., 1998). Cells were maintained in RPMI medium with 10% fetal bovine serum (FBS) and dilute IL3-containing conditioned medium. […] Cell survival was determined 24 hours later, or after the indicated time intervals, by MTT assay, as previously described (Mosman, 1983). MTT (0.05 mg/ml) was incubated with the analyzed cells for 2 hours at 37 C. Living cells can transform the tetrazolium ring into dark blue formazan crystals, that can be quantified by reading the optical density at 540-630 nm after lysis of the cells with acidic isopropanol. […]

[4] = system: D4 cells (32D expressing ErbB-4); test: as above; format: cell-based; conditions: ligand 100 ng/ml, MTT daily
Method: as §3, §4

B1: NRG-4: synthetic refolded mouse EGF-like domain of NRG-4 (residues 4 to 50, SEQ ID NO:2) (peptide, listed as Mus musculus)
chain: MPTDHEQPCGPRHRSFCLNGGICYVIPTIPSPFCRCIENYTGARCEEVFLPSSSIPSESNLSAAFVVLAVLLTLTIAALCFLCRKGHLQRASSVQCEISLVETNNTRTRHSHREH
[1]; CHO cells, ErbB-4 + ErbB-1
  effect of ErbB-1 co-expression on the radioactive signal: did not significantly affect the radioactive signals
[1]; precipitation with anti-ErbB-1 antibodies
  heterodimers of ErbB-4 with ErbB-1: existence of NRG-4-promoted heterodimers
[2]
  heterodimers of ErbB-4 with ErbB-2: existence of NRG-4-promoted heterodimers
[3]
  survival of D24 cells in the absence of IL-3: more robust, and akin to the NRG-1-treated controls
[4]
  survival of D4 cells in the absence of IL-3: stimulated the survival
